T1: Recombinant phosphorylated IGFBP-1 (human), intact, P08833
T1 chain: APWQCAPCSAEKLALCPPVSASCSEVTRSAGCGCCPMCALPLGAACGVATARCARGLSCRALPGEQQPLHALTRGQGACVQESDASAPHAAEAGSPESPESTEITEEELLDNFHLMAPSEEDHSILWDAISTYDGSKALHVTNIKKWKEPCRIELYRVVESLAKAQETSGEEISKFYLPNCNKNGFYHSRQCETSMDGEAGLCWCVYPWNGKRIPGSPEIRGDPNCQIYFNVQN

T2: IGFBP-6 (human, GroPep), P24592
T2 chain: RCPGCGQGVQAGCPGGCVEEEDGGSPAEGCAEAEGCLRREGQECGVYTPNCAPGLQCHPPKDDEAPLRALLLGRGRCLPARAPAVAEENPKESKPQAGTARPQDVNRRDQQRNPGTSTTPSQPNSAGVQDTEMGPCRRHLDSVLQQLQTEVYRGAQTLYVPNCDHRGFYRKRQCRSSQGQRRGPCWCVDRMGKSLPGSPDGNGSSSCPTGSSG

T3: IGFBP-2 (human, GroPep), P18065
T3 chain: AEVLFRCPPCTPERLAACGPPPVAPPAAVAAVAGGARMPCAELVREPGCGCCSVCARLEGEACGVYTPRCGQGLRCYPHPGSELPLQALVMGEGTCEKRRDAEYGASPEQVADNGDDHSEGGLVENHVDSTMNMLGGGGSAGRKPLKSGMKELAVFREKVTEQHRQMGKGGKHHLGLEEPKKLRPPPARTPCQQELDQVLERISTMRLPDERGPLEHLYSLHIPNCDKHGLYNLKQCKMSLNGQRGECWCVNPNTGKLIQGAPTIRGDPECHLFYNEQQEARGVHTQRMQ

T4: Dephosphorylated preparation of HepG2-purified IGFBP-1, P08833
T4 chain: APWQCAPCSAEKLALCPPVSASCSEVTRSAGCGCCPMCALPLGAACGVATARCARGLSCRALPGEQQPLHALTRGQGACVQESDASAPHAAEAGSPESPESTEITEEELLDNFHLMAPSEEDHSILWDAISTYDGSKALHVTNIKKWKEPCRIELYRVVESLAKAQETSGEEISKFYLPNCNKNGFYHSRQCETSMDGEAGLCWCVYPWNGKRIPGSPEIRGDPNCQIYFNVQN

T5: Recombinant non-phosphorylated IGFBP-1 (human), P08833
T5 chain: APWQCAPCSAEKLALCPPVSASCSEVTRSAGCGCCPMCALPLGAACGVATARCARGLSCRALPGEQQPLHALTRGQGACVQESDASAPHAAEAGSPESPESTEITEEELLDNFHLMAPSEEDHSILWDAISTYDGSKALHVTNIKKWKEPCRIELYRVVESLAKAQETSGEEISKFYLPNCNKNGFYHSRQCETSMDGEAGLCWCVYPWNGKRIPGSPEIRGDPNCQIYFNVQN

T6: Highly phosphorylated HepG2-purified IGFBP-1, P08833
T6 chain: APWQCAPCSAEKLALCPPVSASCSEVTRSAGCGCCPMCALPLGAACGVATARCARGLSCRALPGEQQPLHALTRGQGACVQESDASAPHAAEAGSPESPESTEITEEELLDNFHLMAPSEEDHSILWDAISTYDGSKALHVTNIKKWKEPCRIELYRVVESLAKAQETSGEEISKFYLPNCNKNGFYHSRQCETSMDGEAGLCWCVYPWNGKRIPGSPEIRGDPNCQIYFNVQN

T7: IGFBP-4 (human, GroPep), P22692
T7 chain: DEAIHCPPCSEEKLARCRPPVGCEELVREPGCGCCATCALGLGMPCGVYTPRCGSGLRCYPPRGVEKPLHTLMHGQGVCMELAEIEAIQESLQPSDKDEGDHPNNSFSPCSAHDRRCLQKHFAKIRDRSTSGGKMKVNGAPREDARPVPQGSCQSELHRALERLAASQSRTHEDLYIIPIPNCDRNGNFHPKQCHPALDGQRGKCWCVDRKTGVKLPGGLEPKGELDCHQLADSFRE


Key:
[1] = target: T1, Recombinant phosphorylated IGFBP-1 …
[2] = target: T2, IGFBP-6 (human, GroPep), P24592
[3] = target: T3, IGFBP-2 (human, GroPep), P18065
[4] = target: T4, Dephosphorylated preparation of …
[5] = target: T5, Recombinant non-phosphorylated IGFBP-1 …
[6] = target: Glycosylated IGFBP-3 (human, GroPep), P17936
[7] = target: T6, Highly phosphorylated HepG2-purified …
[8] = target: T7, IGFBP-4 (human, GroPep), P22692
[9] = target: IGFBP-5 (human, Upstate), P24593
Chain of IGFBP-5 (human, Upstate), P24593 (P24593 21-272): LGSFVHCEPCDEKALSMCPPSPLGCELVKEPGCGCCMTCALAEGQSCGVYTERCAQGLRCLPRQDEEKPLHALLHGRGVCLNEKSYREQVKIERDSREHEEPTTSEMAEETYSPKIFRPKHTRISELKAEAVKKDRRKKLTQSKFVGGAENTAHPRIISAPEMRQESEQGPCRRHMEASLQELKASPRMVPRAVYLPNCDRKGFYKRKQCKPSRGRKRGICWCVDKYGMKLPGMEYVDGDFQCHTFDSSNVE

Chain of Glycosylated IGFBP-3 (human, GroPep), P17936 (P17936 28-291): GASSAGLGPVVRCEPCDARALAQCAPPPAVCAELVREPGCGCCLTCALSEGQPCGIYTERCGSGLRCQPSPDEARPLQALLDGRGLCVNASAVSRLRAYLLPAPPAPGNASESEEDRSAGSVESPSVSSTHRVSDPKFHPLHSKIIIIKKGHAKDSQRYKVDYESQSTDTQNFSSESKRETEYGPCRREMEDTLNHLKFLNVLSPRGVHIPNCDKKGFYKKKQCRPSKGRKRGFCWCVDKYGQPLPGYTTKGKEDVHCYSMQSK

| Protein | proteolysis of IGFBP-1 [1] | cleavage of IGFBP by urine, 2 h at 37 C, neutral conditions [2] | cleavage of IGFBP by urine, 2 h at 37 C, neutral conditions [3] | cleavage of IGFBP-1 by urine, 2 h at 37 C, neutral conditions (affinity labelling with radioiodinated IGF-I, SDS-PAGE, autoradiography) [4] | proteolysis of IGFBP-1 (SDS-PAGE, silver staining) [1] | time course of degradation by 0.5 µl urine at 37 C (radioiodinated substrate, SDS-PAGE, autoradiography) [1] | cleavage of radioiodinated recombinant npIGFBP-1 by 0.25 µl heparin eluate at pH 2 and 7 (2 h, 37 C; SDS-PAGE, autoradiography) [5] | cleavage of radioiodinated recombinant npIGFBP-1 by 0.25 µl heparin eluate at pH 2 to 8 (2 h, 37 C; SDS-PAGE, autoradiography) [5] | cleavage of radioiodinated recombinant npIGFBP-1 by 0.5 µl urine after preincubation with 2, 5 or 10 ng IGF-I [5] | cleavage of radioiodinated recombinant npIGFBP-1 by 0.5 µl urine after preincubation with 2, 5 or 10 ng IGF-II [5] | cleavage of radioiodinated recombinant npIGFBP-1 by 0.5 µl urine after preincubation with 2, 5 or 10 ng insulin [5] | cleavage of radioiodinated recombinant npIGFBP-1 by 0.5 µl urine alone at pH 7 (2 h, 37 C; SDS-PAGE, autoradiography) [5] | cleavage of radioiodinated recombinant npIGFBP-1 by 0.5 µl urine at pH 2 to 8 (2 h, 37 C; SDS-PAGE, autoradiography); the neutral range is meant [5] | time course of degradation by 0.5 µl urine at 37 C (radioiodinated substrate, SDS-PAGE, autoradiography) [5] | cleavage of IGFBP by urine, 2 h at 37 C, neutral conditions [6] | cleavage of IGFBP-1 by urine, 2 h at 37 C, neutral conditions (affinity labelling with radioiodinated IGF-I, SDS-PAGE, autoradiography) [7] | cleavage of IGFBP by urine, 2 h at 37 C, neutral conditions [8] | cleavage of IGFBP by urine, 2 h at 37 C, neutral conditions [9] |
| --- | --- | --- | --- | --- | --- | --- | --- | --- | --- | --- | --- | --- | --- | --- | --- | --- | --- | --- |
| Recombinant azurocidin 27-250, purified from murine myeloma cells (R&D Systems) (protein) IVGGRKARPRQFPFLASIQNQGRHFCGGALIHARFVMTAASCFQSQNPGVSTVVLGAYDLRRRERQSRQTFSISSMSENGYDPQQNLNDLMLLQLDREANLTSSVTILPLPLQNATVEAGTRCQVAGWGSQRSGGRLSRFPRFVNVTVTPEDQCRPNNVCTGVLTRRGGICNGDGGTPLVCEGLAHGVASFSLGPCGRGPDFFTRVALFRDWIDGVLNNPGPGP | Recombinant human azurocidin^27-250, produced in mouse myeloma cells, had no effect on IGFBP-1 (data not shown) | – | – | – | – | – | – | – | – | – | – | – | – | – | – | – | – | – |
| Azurocidin, native, partially purified from human urine by heparin affinity chromatography (protein) IVGGRKARPRQFPFLASIQNQGRHFCGGALIHARFVMTAASCFQSQNPGVSTVVLGAYDLRRRERQSRQTFSISSMSENGYDPQQNLNDLMLLQLDREANLTSSVTILPLPLQNATVEAGTRCQVAGWGSQRSGGRLSRFPRFVNVTVTPEDQCRPNNVCTGVLTRRGGICNGDGGTPLVCEGLAHGVASFSLGPCGRGPDFFTRVALFRDWIDGVLNNPGP | – | 2 µl had minimal effect on ... not shown here, IGFBP-4 and IGFBP-6 | 2 µl had minimal effect on IGFBP-2 | One µl of urine cleaved more than 50% of each IGFBP-1 isoform | Azurocidin-dependent proteolysis of phosphorylated IGFBP-1 was seen within minutes, using a protease:substrate molar ratio of 1:3,500 | no difference was found in the rate of degradation of each isoform, with fragments visible within 3 min, and substantial degradation by 2 h | eluate at pH 2: strong 30K band, no fragments; eluate at pH 7: faint 30K band and a strong band at 14.3K | the 30K band is strong at pH 2 and 4, a little weaker at pH 5, thin at pH 6 and absent at pH 7, 7.5 and 8; bands at 14.3K appear at pH 5 and 6 and are strongest at pH 7 and 7.5 | at 2, 5 and 10 ng IGF-I the upper band is kept, weaker than in the untreated lane (*), and the lower band is only faint; no clear change from 2 to 10 ng | at 2, 5 and 10 ng IGF-II the upper band is kept, weaker than in the untreated lane (*), and the lower band is only faint; no clear change from 2 to 10 ng | at all three amounts of insulin the upper band is as faint as with urine alone and the lower band is seen | lane U: the upper band of the untreated lane (*) is nearly gone and a strong lower band appears | the 30K band is strong at pH 6, weaker at pH 5, faint at pH 7 and absent at pH 7.5 and 8; strong fragment bands at 14.3K at pH 7, 7.5 and 8 (at pH 2 and 4 the 30K band is also absent, with only faint signal near 14.3K) | no difference was found in the rate of degradation of each isoform, with fragments visible within 3 min, and substantial degradation by 2 h | 2 µl had minimal effect on ... glycosylated (g) IGFBP-3 | One µl of urine cleaved more than 50% of each IGFBP-1 isoform | 2 µl had minimal effect on ... not shown here, IGFBP-4 | 2 µl had minimal effect on ... IGFBP-5 |
